# Source: US20170119790A1, “Agents, Uses and Methods” (CYTOGUIDE A/S, priority 2009, published 2017)
# T1: mouse CD163 1-5 LKIHDK-->VKVQEE, Y60R mutant (Mus musculus, UniProt Q2VLH6, D69E/H68Q/I67V/K70E/L65V/Y111R)
# T1 construct: A mutant (LKIHDK-->VKVQEE, Y60R) in domain 1 of mouse CD163 1-5; host or cells: Lenti-X 293T, transient; captured from supernatant on Ni-NTA
# T1 sequence (Q2VLH6 39-577 L65V/I67V/H68Q/D69E/K70E/Y111R): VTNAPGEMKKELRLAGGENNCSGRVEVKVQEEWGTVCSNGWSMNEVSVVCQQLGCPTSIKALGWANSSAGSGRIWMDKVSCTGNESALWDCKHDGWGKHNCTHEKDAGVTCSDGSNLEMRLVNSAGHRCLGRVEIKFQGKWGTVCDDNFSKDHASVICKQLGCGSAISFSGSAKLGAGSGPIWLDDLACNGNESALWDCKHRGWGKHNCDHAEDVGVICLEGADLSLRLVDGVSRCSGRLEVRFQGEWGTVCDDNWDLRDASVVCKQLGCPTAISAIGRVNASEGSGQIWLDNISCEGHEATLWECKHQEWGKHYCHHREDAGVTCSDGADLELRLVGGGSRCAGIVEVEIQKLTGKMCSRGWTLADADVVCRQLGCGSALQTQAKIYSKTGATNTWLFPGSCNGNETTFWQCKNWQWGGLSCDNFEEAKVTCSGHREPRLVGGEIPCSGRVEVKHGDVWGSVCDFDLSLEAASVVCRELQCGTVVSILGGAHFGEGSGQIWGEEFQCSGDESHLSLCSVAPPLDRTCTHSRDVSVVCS
# B1: MAC2-158: anti-human CD163 murine mAb, binds SRCR domain 1, IQ Products; VH SEQ ID NO: 1, VL SEQ ID NO: 2 (antibody, V domains shown)
# VH: DVQLQESGPGLVKPSQSLSLTCTVTGYSITSDYAWNWIRQFPGNKLEWMGYITYSGITNYNPSLKSQISITRDTSKNQFFLQLNSVTTEDTATYYCVSGTYYFDYWGQGTTLTVSS
# VL: SVVMTQTPKSLLISIGDRVTITCKASQSVSSDVAWFQQKPGQSPKPLIYYASNRYTGVPDRFTGSGYGTDFTFTISSVQAEDLAVYFCGQDYTSPRTFGGGTKLEIKRA
# modifications: Mac2-158 VH; Mac2-158 VL
# Target: T1, mouse CD163 1-5 LKIHDK-->VKVQEE, Y60R mutant
# Experiment: Western blotting of mouse CD163 and knock in mutant
# Type: binding
# Protocol: CD163 domain 1-5 was used for expression of mouse CD163 domain 1-5/V5/His. A mutant (LKIHDK-->VKVQEE, Y60R) in domain 1 of mouse CD163 1-5 was ordered as midiprep at GenScript (Piscataway, N.J., USA). Sequences DNA and protein of mutants are show below (mutant only domain 1).
# The mouse CD163 1-5 and the mouse CD163 domain 1 mutant were expressed transient in Lenti-X 293T cells as follows: 1.5 μg of the DNA was diluted in OptiCHOPro SFM (8 mM L-glutamine) to a total volume of 50 μl The DNA was gently mixed with 50 μl of OptiCHOPro SFM containing 1.5 μl Freestyle MAX transfection reagent (Invitrogen, Taastrup, Denmark). After 10 min of incubation at room temperature the complexes were added to 1×10^6 cells in 1 ml. Three days later, the cell supernatants were harvested by centrifugation.
# Tris pH 8 buffer, and cell culture supernatants were added 60 μl of Ni-NTA His-bind resin slurry. After 1 hour shaking at 4° C. the supernatants were aspired and each of the purifications were eluted with 90 μl 50 mM Tris pH 8, 25 mM EDTA buffer.
# 90 μl of each of the eluates were added 30 μl of 4×LDS sample buffer. 20 μl samples of each supernatant and 8 μl SeeBlue plus2 prestained marker were loaded on NuPage 4-12% Bis-Tris-Gels (Invitrogen, Taastrup, Denmark) and the SDS-PAGEs were run with MOPS running buffer according to instructions of the manufacturer (200 V constant for 50 min). […]
molecule,measurement,value
B1,binding in western blot,did bind
